Measurements from patent US20160031986A1.

Columns and labels:
[1] = target: cynomolgus monkey DLL4 extracellular domain (cynomolgus monkey); experiment: Biacore SPR; head says nM, kd/ka gives M
[2] = target: cynomolgus monkey DLL4 extracellular domain (cynomolgus monkey); experiment: Biacore SPR
[3] = target: cynomolgus monkey DLL4 extracellular domain (cynomolgus monkey); experiment: binding ELISA

| Kd [1] | koff [2] | kon [2] | EC50 [3] | Binder |
| --- | --- | --- | --- | --- |
| 18 nM | 0.00255 s⁻¹ | 144000 M⁻¹ s⁻¹ | 0.13 nM | h1A11.1 (antibody, V domains shown) VH: EVQLVESGGGLVQPGGSLRLSCAASGFTFSNFPMAWVRQAPGKGLEWVATISSSDGTTYYRDSVKGRFTISRDNAKNSLYLQMNSLRAEDTAVYYCARGYYNSPFAYWGQGTLVTVSS VL: DIQMTQSPSSLSASVGDRVTITCRASEDIYSNLAWYQQKPGKAPKLLIYDTNNLADGVPSRFSGSGSGTDFTLTISSLQPEDFATYYCQQYNNYPPTFGQGTKLEIKR |
| 6.9 nM | 0.00099 s⁻¹ | 143000 M⁻¹ s⁻¹ |  | h1A11.B4 (antibody, V domains shown) VH: EVQLVESGGGLVQPGGSLRLSCAASGFTFSNFPMAWVRQAPGKGLEWVATISSSDGTTYYRDSVKGRFTISRDNAKNSLYLQMNSLRAEDTAVYYCARGYYNSPFAYWGQGTLVTVSS VL: DIQMTQSPSSLSASVGDRVTITCRASQDIYYNLAWYQQKPGKAPKLLIFDTNILADGVPSRFSGSGSGTDFTLTISSLQPEDFATYFCQQYDYVPPTFGQGTKLEIK |
| 0.35 nM | 4.6e-05 s⁻¹ | 131000 M⁻¹ s⁻¹ |  | h1A11.H2 (antibody, V domains shown) VH: EVQLVESGGGLVQPGGSLRLSCAASGFTFGNFPMSWVRQAPGKGLEWVASISSSDSWATIGDSVKGRFTISRDNAKNSLYLQMNSLRAEDTAVYYCARGYYNSPFAFWGQGTLVTVSS VL: DIQMTQSPSSLSASVGDRVTITCRASQEIYRNLAWYQQKPGKSPKLLIFDTSVLADGVPSRFSGSGSGTDSTLTISSLQPEDFATYYCQQYTYYPPTFGQGTKLEIK |
| 10 nM | 0.00162 s⁻¹ | 158000 M⁻¹ s⁻¹ |  | h1A11.A12 (antibody, V domains shown) VH: EVQLVESGGGLVQPGGSLRLSCAASGFTFSNFPMAWVRQAPGKGLEWVATISSSDGTTYYRDSVKGRFTISRDNAKNSLYLQMNSLRAEDTAVYYCARGYYNSPFAYWGQGTLVTVSS VL: DIQMTQSPSSLSASVGDRVTITCRASQDIYYNLAWYQQKPGKSPKLLIFDTSSLADGVPSRFSGSGSGTDFTLTISSLQPEDFATYFCQQYDWYPPTFGQGTKLEIK |
| 7.8 nM | 0.00124 s⁻¹ | 158000 M⁻¹ s⁻¹ |  | h1A11.A7 (antibody, V domains shown) VH: EVQLVESGGGLVQPGGSLRLSCAASGFTFSNFPMAWVRQAPGKGLEWVATISSSDGTTYYRDSVKGRFTISRDNAKNSLYLQMNSLRAEDTAVYYCARGYYNSPFAYWGQGTLVTVSS VL: DIQMTQSPSSLSASVGDRVTITCRASQDIYINLAWYQQKPGKAPKLLIFDTSDLADGVPSRFSGSGSGTDFTLTISSLQPEDFATYYCQQYDYYPPTFGQGTKLEIK |
| 1.5 nM | 0.000178 s⁻¹ | 117000 M⁻¹ s⁻¹ |  | h1A11.B5 (antibody, V domains shown) VH: EVQLVESGGGLVQPGGSLRLSCAASGFTFRYFPMSWVRQAPGKGLEWVASISGSDGWASYRDSVKGRFTISRDNAKNSLYLQMNSLRAEDTAVYYCARGYYNSPFASWGQGTLVTVSS VL: DIQMTQSPSSLSASVGDRVTITCRASQDIWNNLAWYQQKPGKSPKLLIFDTSYLADGVPSRFSGSGSGTDFTLTISSLQPEDFATYYCQQYDWYPPTFGQGTKLEIK |
| 3.9 nM | 0.000527 s⁻¹ | 134000 M⁻¹ s⁻¹ |  | h1A11.A2 (antibody, V domains shown) VH: EVQLVESGGGLVQPGGSLRLSCAASGFTFSNFPMAWVRQAPGKGLEWVATISSSDGTTYYRDSVKGRFTISRDNAKNSLYLQMNSLRAEDTAVYYCARGYYNSPFAYWGQGTLVTVSS VL: DIQMTQSPSSLSASVGDRVTITCRASQDIYINLAWYQQKPGKSPKLLIFDTNDLADGVPSRFSGSGSGTDFTLTISSLQPEDFATYYCQQYDYVPPTFGQGTKLEIK |
